The text below walks through data of US20070224125A1 (APPLIED RESEARCH SYSTEMS ARS HOLDING N V, published 2007).

In the experiment the target is T1, Bovine Serum Albumin (BSA) (bovine, UniProt P02769 25-607).
T1 construct: Negative control
In words: proteins spotted on nitrocellulose filters, incubated with radiolabeled chemokine.

T1 sequence (P02769 25-607 limits assumed): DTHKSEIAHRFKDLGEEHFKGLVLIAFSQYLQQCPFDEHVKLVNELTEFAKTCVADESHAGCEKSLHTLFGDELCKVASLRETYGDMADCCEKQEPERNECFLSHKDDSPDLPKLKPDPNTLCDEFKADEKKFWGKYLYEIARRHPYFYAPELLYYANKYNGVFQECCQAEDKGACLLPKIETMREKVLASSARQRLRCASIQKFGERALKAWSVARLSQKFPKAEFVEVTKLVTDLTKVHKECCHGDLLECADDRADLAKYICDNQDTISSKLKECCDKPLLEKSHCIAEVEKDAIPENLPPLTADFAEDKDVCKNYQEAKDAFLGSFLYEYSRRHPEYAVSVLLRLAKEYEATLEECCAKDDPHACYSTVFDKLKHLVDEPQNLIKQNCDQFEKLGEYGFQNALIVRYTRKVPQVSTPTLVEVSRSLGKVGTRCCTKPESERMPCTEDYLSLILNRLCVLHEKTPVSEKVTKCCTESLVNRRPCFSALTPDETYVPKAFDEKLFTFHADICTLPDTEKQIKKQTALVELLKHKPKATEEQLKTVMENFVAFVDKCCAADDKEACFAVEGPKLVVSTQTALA

B1: CCL5/RANTES (ligand, UniProt P13501 24-91, looked up)
chain: SPYSSDTTPCCFAYIARPLPRAHIKEYFYTSGKCSNPAVVFVTRKNRQVCANPEKKWVREYINSLEMS
B1: the binding result was “no binding”.

B2: CCL3/MIP-1alpha (ligand, UniProt P10147 24-92, looked up)
chain: SLAADTPTACCFSYTSRQIPQNFIADYFETSSQCSKPGVIFLTKRSRQVCADPSEEWVQKYVSDLELSA
notes: also called CCL/MIP-1alpha; 125I-MIP-1alpha
Consider B2, for which the binding result is reported as “no binding”.
